assay: soluble on expression in E. coli; label from the status in PepcDB or PDB records

Soluble on expression in E. coli, not soluble:
MGSDKIHHHHHHMKLLCSLASPYARCVRSLIRYLGIEDIEEVLVNPMENTAQLLDVNPLGQIPCLITNDGVPIFDSEVIMRYLDTELGAQEMFGGQPYNWVLQCQYSMIKGLIDSAVKLRQEQMREEEGVRSAFWTSRFEQALLRGLMQMEHQSVITQTTIQAPQLTLICLLDYVDFRHPELDWRKVAPATAIWFSEMRDLPAFVETRPQ
MGSDKIHHHHHHMKLNTLLQRLDQTVPLAFDTSLQNPEITSLQFDDDTTLSLHPTSLYLAVSADQTITLKGSVGKTAQLSLCAQMQLKNESQLAQLFDRAGCLLTSETSLQAQVNQLAIKAITEDFDTILNQAARTLGNPLIVLDLVGQPVAQSTQAPAISDLTAPAITSVQVQQALKKFRPAKDLIPQVILIQQSQLPLLLLCLPLAYRNNALGYLVMPACVRPLTAEQTAFFKAEAKIITSSLIKNRMMPTAASKRDQLLTMLLTEQQSGTFAAQFAKEHATLPTSMVLIKGEPRAGQSLAALKERLKYLLTPLFSQTLITLYHHQCLALVSVDLPTYNNPEFKADLATIADRANCRLIVSNQYTRPEDTIAAYAVCSRTAKLKSQPTHVTMCEDAFFDLMLAQVDHAEILPFFINPAVKALMDHDAENKTELLPTLDAYLESGENLTHTARQLFIHLNTLRYRLKHISDITGIDLKDAETCFKLGASFKVRRYLNHNKLTFTR
MGSDKIHHHHHHMKNIKIFPKDWLQLHPYKQSTPVDSYYTGIANRIYDIMEKTELVNSFEGEETKQICIRMAAYFEDVISGMGLWRAFILTHKELYGKYLPFYTPDDHYYDDEVNLEDVRFLLWHYTQQYHGYRKGTFVSPDNPANESTGMLIYDLFCKEWTTAPENTRMAKLFALDTRYERQEDYDRLLQWFHYESYILPESARELSDFAHDRWKEQPDLNQEQLNNLLVNSHGMMAYTSKTSLLGLTSPQWLAKILPAEHPDHAVFQNTADESVATLPDDMLEENRQQYETFRKAAGDKLLLYFDKTEDAQTFITETSGLIPAENFHLPEDWQGKKLAIYATPEEGAQVITRDVELIKDENNPFYDANRAAKQALSFFIVKHCSVYFLPELVKRGMLADAQTKSLISPERGKAIIQENWKFLARYFIREYPNR
MGSDKIHHHHHHMKNNETKVPTSRLSRLSKMGGLASRLAGNVLLEGAKQLSQGKSPSMQQLMMTPKNIGHVADKLSQLRGAAMKVGQMLSMDAGDLVPPELAEILAKLRSDAKAMPHKQLTQLLVQHWGHDWLAPFAQFELRPFAAASIGQVHLAYLDTGEKLAIKIQYPGIRDSIDSDIDNVASLLKVSRLIPANVKLDTLLAEAKAQLHNEADYHFEAQQIALYQQQLGDSPHFIVPKVYPKLSNNSILCMQFVEGVAIESVEHSPQDVRDKVASALMELCFKELFCFQLVQSDPNFANFQYQADSQKIVLLDFGATRTISDTLSQGYMQLMQGAIADDKQQMIQAAQQIGFFQDAIDPQQKQLIIDIFYQACEPLRTQGTYDFGASNLAKRITQAGKAMSTQQNEWHTPPTDAIFIHRKLAGMYLLAAKLNANINVHALFNQVVNSKNE
MGSDKIHHHHHHMKNNKNEKLKITIVSGFLGSGKTTFLTHYINELLKIDEKITVIMNEFGSFDVDGNHLSELVKVYPLLNGCVCCDMKSDLVQQIEMLSHNHETDHIIIEATGIAHPIELIMACQDPRIVQFVERPHVVSIVDALRFLQRQQYTDSTKRLMEEQLEVSDVLVVNKLDLISVEDRDALKNQLNEVNKYSSKIYTTYGQVNIEELSQFRDQLVMTHTHSHHHGINSMQYTFTTAIDRQLFYQFILRMPDNVLRLKGYVQFKDEPNVTYEFQYSFGMPDYEVINGDYPLTIVLIGEQLDVNRLKNKLDVLQFS
MGSDKIHHHHHHMKNVVTDPEKVTRILKTATEIFGQQGFIKSKTDQIANQAQVSKGLLFHYFGNKQALYLDAFKYAYHRIYDHMDPKKWQNAPGLAAMMTTAVKYELKLQFKFPAEYRLMMQAYADLPHFPEPLRQQVQQETTAISAEADRIFREKIEQLPRREGLSVDDVFGVVSALIAQQTAVTTRLIASGHYRKFEDLQSVVETMARQLLIVEHGFLPDES
MGSDKIHHHHHHMKQELALFIKKIIDLPAAEEKKLLAITRVYKVPKGDFYIQIGQIPKKFAFVAKGLFRYVYIDSKGNEFTKNFVPENNFALAYSSMIRHEVSKMAIEALEDSIICEIDYTDWLTLKKGNACWNIFLITILENAFTIKENRERDLLLLDAEQRYETFRQEFPALETRVKQHLIASYLGISPVSLSRIRKKRT
MGSDKIHHHHHHMKQIAVVSGKGGTGKTTFTASLGVLLENSLLADCDVDASNLYILFPGDPVEEHEYYRGKKAVIDQEKCDRCGICERVCRFDAIIPGEKYGVDQYACEGCNACVVSCPRNAITLVQSLAGRYFFAWSGGKPIVYARLSPGEENSGGLVAEVRKLALEKAKELKRDYVIIDGAPGIGCSATSSIVGVNYVVVVTEPTMSGLHDLKRIVETLKCLKREFGIVINKYDINSVVSREIEDYCLSEGLDLLGKIPFDETVVRASVECKPVVTYENSPAAESIKKIVEKIIEKIS
MGSDKIHHHHHHMKQNVLLQSILIQLNLLKENYSEDTIKNLMDIPKQLTSNTSYKRNVKEVSHVHIAFDDSTAGCLKHMLGQEERLEEMVVAFSEFFSIGPINKLHMNEGQLARKEWLVNNLTSYDCYFEEEYLPRFKETLEVLHSIPNETPITIWKADNAHEHVGLCFVMAQLKDKKNIRVMNTSEASKEILKLEYVIRGTGELPPENLALIQKSFVKLPYLTVENRMQFEHEWDSLSKSTEFLRIWTDNAVRSVQENYFDQFIIECAKSIGADQEFRKAPRVIGEALGLVEQSVGDTFLEYRLKELIKQEVFEFEGSLDEMRFYSVKLRK
MGSDKIHHHHHHMKQPNYYQDVKQFHQTFHHPGADQPTAIPLDRGVKRATWTAEEAVVEFLHQSSQNETEFLAAIETFKAGLDQAVKKSLKETYPVTEVERLVGQGDALTDALYFIMGSFVEAGLEPGPLFEIVQQANMAKLGPDGQPIFRESDQKVMKPDGWLPPEPQLEAEVVRQMKEKA
MGSDKIHHHHHHMKQYGEKFIDEFSKAEFEKLAKQGQLIDVRTEEEYALGHINGSILHPVDEIESFNKEKNKTYYVICRSGNRSANASKYLAKQGYNVINLDGGYKAYEENDSYDTQEEYKSIEIKADRKQFNYRGFQCPGPIVKISQEMKNIEVGDQIEVKVTDPGFPSDIKSWVKQTRHTLVKLDENNNGINAIIQKEKAKDLDINYSAKGTTIVLFSGELDKAVAALIIANGARAAGKDVTIFFTFWGLNALKKVQTVNVKKQGIAKMFDLMLPQKNIRMPLSKMNMFGLGNMMMRYVMKKKNVDSLPTLINQAIEQNIKLIACTMSMDVMGIQKEELRDEVEYGGVGTYIGATENANHNLFI
MGSDKIHHHHHHMKRINCFIPYGKIEATRQTVAQLAESSLVSQIYLITDDPHAKAIYPCNLIRTENIWSTKTLREIAGYASAHYTLIYTKTEELQLGMYALERFVAIADDTRSGMVYSDYYEKKEGKLNPHPVIDYQKGSLRDDFNFGSLLLYRSSTLQNAIASMDTEYTFAGLYDLRLKVSQNAPLTHINEYLYTEVENDLRKSGEKMFDYVDPKNRSVQIEMEAACTDHLKMIGGYLPPHFKPVRFDEQTFQTEASVIIPVRNRVRTIEDAIRSVLRQEASFPFNLIIIDNHSTDGTSERIQAIAATDLRIIHIQPERDDLGIGGCWNIGIHHSACGKFAIQLDSDDVYSDEHTLRKIVEAFYEQRCAMVVGTYRMTDFDMRTIPPGIIDHKEWTPENGRNNALRINGLGAPRAFYTPLLRKLNLPNTSYGEDYALGLRISREYPIGRIYDVLYLCRRWEDNSDASLDVVKMNNHNIYKDKIRTWELEARLNMERQ
MGSDKIHHHHHHMKRNTAQLKEKLIQTGVEEIKKNGLDQLSLRTIAKNCGVTHGTPYRHFKSKEDYLRVVLTRLSTFLNQEIAQGIDQKVSARDQLAQMGFNLITFTKRYPYFFEALFIKFPFKYMKITQETIVLDSDLPGFDKFKRIVFDLRKEESFTNSEAETLFHFWSFISGLAVLANSPIGRDLDNQAIHTTINHMLDIYIKGEQT
MGSDKIHHHHHHMKRPLQTWLTESWLAFSRLLTFHILERRLFEHSGRIPYEPQPGNLLYVAASVLPYHTSGYTTRTHEVVCALNKAGARVHVLTRPGYPWDRKDRLCDPVSEETTVGDMCYRHAQAPANNRPVLQYALQAARVVAESAVRHRVAVIHAASNHVNALPALLAARQLGIPFQYEMRGLWELTRISRQPGYEDSQAYKQGLQLEGLVARHADRLFVISEQLGKYVQTNWDIDAGRMALLPNCVDPERFLIADPQQIESNTIGYAGSLMGYEGLDTLIDAVDILVRSGSSVRVVIIGDGEARPQLETRVQRLGLSERIYFSGKMPPDAAREKLARCALVCIPRKPFKVCEIVPPIKLVEALAMGKPVIVPDLPVFRDELGDDPAGWFFRSGDAADLAHVIEAALGNEEKLREMSDQARDYVLAKRCWHRFVDKMAKPYDS
MGSDKIHHHHHHMKSHVRSFKTYIRDEIIKKGGWVNAHAHADRAFTMTPEKIGIYHSSNLQQKWDLVDEVKRTSSVDDYYARFCQSIELMISQGVTAFGTFVDIDPICEDRAIIAAHKAREVYKHDIILKFANQTLKGVIEPTARKWFDIGAEMVDMIGGLPYRDELDYGRGLEAMDILLDKAKSLGIMCHVHVDQFNNPSEKETEQLCDKTIEHGMEGRVVGIHGISIGSHSKEYRYKLYEKMRKAKMMMIACPMAWIDSNRKEDLMPFHNALTPADEMIPEVSLLP
MGSDKIHHHHHHMKSKIYILLLFLIFLSACANTRHSESDKNVLTVYSPYQSNLIRPILNEFEKQEHVKIEIKHGSTQVLLSNLHNEDFSERGDVFMGGVLSETIDHPEDFVPYQDTSVTQQLEDYRSNNKYVTSFLLMPTVIVVNSDLQGDIKIRGYQDLLQPILKGKIAYSNPNTTTTGYQHMRAIYSMHHRVSDVHQFQNHAMQLSKTSKVIEDVAKGKYYAGLSYEQDARTWKNKGYPVSIVYPIEGTMLNVDGIALVKNAHPHPKRKKLVQYLTSRSVQQRLVAEFDAKSIRKDVSEQSDQSIENLKNIPLIPKSKLPDIPHHKFLEMIQ
MGSDKIHHHHHHMKTARLIYNPTSGREQIRKSLAYILERLELAGYETSTHATTGEGSATEAARLAGERRHDLVIAAGGDGTIYEVVNGLAGLEKRPTLGLIPAGTTNDFARALNIPRDIEKACDILIEGHTKPVDVGKAGDHYFINIAAGGTLTELTYEVPSKLKTVVGQLAYYIKGLEKLPQISPTDVRIEYDGKLFEGEIMMFLVSNTNSVGGFERLAPNASLRDGMFDFIIVKKTSFPEFLHLAGLALRGEHIKHPKVLYVQANRIKVQAEKSMQLNFDGEYGGLLPAEFVNLYQHFQMLCPKD
MGSDKIHHHHHHMKTDITVVKASHLQPFISFLDKVGAPLDRLLNQVNLHADYFSDQENLIAEAPFWALLEHASYSQGIEDLGFQVTEQLSLDSFGVFGAKVMQADSLHQALTTFIRDMGQQSNCPPFWLMEQGAFVWFCRLGTQGIKKGHWPIEQHVISLMIQLVRGFTTATWTPPKVHLQTHTLKGADNTASFSNSQILINKAFTGICISKSLLLNGAVIKPKDRVAEEVAHQMTISTVNSHVIKELLMQSCANQPLNAQQIANSLGLNIRHMQRLLKEEGCSYRELSEQVLFKQSQVMLSTEQLSVLEVALALGYSDAANFTRAFKRWSGLSPTQYKLLLN
MGSDKIHHHHHHMKTLQYSFAQIEAFATIAETGSLSQAAIRLAKDRTTLRDLLDYLEDALGYRLFSREGRSLTLTAEGEQLFRQAHLLLRQAQAFESFAQTLPQTAGQALRLVYDPFVPREFLCALADNLARRQIRLSCWSASRREAEQALSDGVAEMAICQANNRTLGSEMEWRALGTVDLRFYAADSLFHDAPRPLTLLNLSLTPQLVMHRRSDDQIARRLQISGHTLYMNEITLLRHALEQGRGWGFLPDHLRPGEWQGVSEIATEVGSQGLNVTMVMLWLPGMNKHRMLSDIVHEAPELWLRR
